Source: patent publication US20250262153A1

Target: PD-1 protein on the surface of Jurkat PD-1 NFAT line cells (UniProt Q15116)
Assay: cell-based or functional assay

UniProt Q15116, sequence (Q15116 25-288 limits assumed): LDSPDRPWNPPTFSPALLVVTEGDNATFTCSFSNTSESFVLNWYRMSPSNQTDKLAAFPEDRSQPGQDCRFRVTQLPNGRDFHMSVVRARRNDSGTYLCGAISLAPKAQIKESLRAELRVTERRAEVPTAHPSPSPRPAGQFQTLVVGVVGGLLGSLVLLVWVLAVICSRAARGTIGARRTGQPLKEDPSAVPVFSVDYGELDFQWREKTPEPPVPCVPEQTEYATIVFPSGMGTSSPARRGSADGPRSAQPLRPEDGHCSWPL

B1: prolgolimab (antibody, from a related filing, V domains shown)
VH: QVQLVQSGGGLVQPGGSLRLSCAASGFTFSSYWMYWVRQVPGKGLEWVSAIDTGGGRTYYADSVKGRFAISRVNAKNTMYLQMNSLRAEDTAVYYCARDEGGGTGWGVLKDWPYGLDAWGQGTLVTVSS
VL: QPVLTQPLSVSVALGQTARITCGGNNIGSKNVHWYQQKPGQAPVLVIYRDSNRPSGIPERFSGSNSGNTATLTISRAQAGDEADYYCQVWDSSTAVFGTGTKLTVLQ
  Relative specific activity, % (ED50 standard / ED50 test, Jurkat PD-1 NFAT luminescence); 20 mg/ml, histidine, trehalose 100 mg/ml, 37 C, initial control: 105%
  Relative specific activity, %; 20 mg/ml, acetate pH 5.0, trehalose 80 mg/ml, 37 C, 2 weeks: 103%
  Relative specific activity, %; 20 mg/ml, acetate pH 5.0, trehalose 80 mg/ml, 37 C, 4 weeks: 94%
  Relative specific activity, %; 20 mg/ml, acetate pH 5.0, trehalose 80 mg/ml, 37 C, initial control: 100%
  Relative specific activity, %; 20 mg/ml, acetate pH 5.0, trehalose 100 mg/ml, 37 C, 2 weeks: 93%
  Relative specific activity, %; 20 mg/ml, acetate pH 5.0, trehalose 100 mg/ml, 37 C, 4 weeks: 99%
  Relative specific activity, %; 20 mg/ml, acetate pH 5.0, trehalose 100 mg/ml, 37 C, initial control: 89%
  Relative specific activity, %; 20 mg/ml, histidine, trehalose 80 mg/ml, 37 C, 2 weeks: 103%
  Relative specific activity, %; 20 mg/ml, histidine, trehalose 80 mg/ml, 37 C, 4 weeks: 94%
  Relative specific activity, %; 20 mg/ml, histidine, trehalose 80 mg/ml, 37 C, initial control: 100%
  Relative specific activity, %; 20 mg/ml, histidine, trehalose 100 mg/ml, 37 C, 2 weeks: 97%
  Relative specific activity, %; 20 mg/ml, histidine, trehalose 100 mg/ml, 37 C, 4 weeks: 110%
  Relative specific activity, %; 100 mg/ml, acetate pH 5.0, trehalose 80 mg/ml, 37 C, 2 weeks: 94%
  Relative specific activity, %; 100 mg/ml, acetate pH 5.0, trehalose 80 mg/ml, 37 C, 4 weeks: 105%
  Relative specific activity, %; 100 mg/ml, acetate pH 5.0, trehalose 80 mg/ml, 37 C, initial control: 89%
  Relative specific activity, %; 100 mg/ml, acetate pH 5.0, trehalose 100 mg/ml, 37 C, 2 weeks: 112%
  Relative specific activity, %; 100 mg/ml, acetate pH 5.0, trehalose 100 mg/ml, 37 C, 4 weeks: 97%
  Relative specific activity, %; 100 mg/ml, acetate pH 5.0, trehalose 100 mg/ml, 37 C, initial control: 107%
  Relative specific activity, %; 100 mg/ml, histidine, trehalose 80 mg/ml, 37 C, 2 weeks: 94%
  Relative specific activity, %; 100 mg/ml, histidine, trehalose 80 mg/ml, 37 C, 4 weeks: 105%
  Relative specific activity, %; 100 mg/ml, histidine, trehalose 80 mg/ml, 37 C, initial control: 89%
  Relative specific activity, %; 100 mg/ml, histidine, trehalose 100 mg/ml, 37 C, 2 weeks: 104%
  Relative specific activity, %; 100 mg/ml, histidine, trehalose 100 mg/ml, 37 C, 4 weeks: 97%
  Relative specific activity, %; 100 mg/ml, histidine, trehalose 100 mg/ml, 37 C, initial control: 101%
  Relative specific activity, %; 150 mg/ml, acetate pH 5.0, trehalose 80 mg/ml, 37 C, 2 weeks: 99%
  Relative specific activity, %; 150 mg/ml, acetate pH 5.0, trehalose 80 mg/ml, 37 C, 4 weeks: 108%
  Relative specific activity, %; 150 mg/ml, acetate pH 5.0, trehalose 80 mg/ml, 37 C, initial control: 91%
  Relative specific activity, %; 150 mg/ml, acetate pH 5.0, trehalose 100 mg/ml, 37 C, 2 weeks: 106%
  Relative specific activity, %; 150 mg/ml, acetate pH 5.0, trehalose 100 mg/ml, 37 C, 4 weeks: 103%
  Relative specific activity, %; 150 mg/ml, acetate pH 5.0, trehalose 100 mg/ml, 37 C, initial control: 92%
  Relative specific activity, %; 150 mg/ml, histidine, trehalose 80 mg/ml, 37 C, 2 weeks: 99%
  Relative specific activity, %; 150 mg/ml, histidine, trehalose 80 mg/ml, 37 C, 4 weeks: 108%
  Relative specific activity, %; 150 mg/ml, histidine, trehalose 80 mg/ml, 37 C, initial control: 91%
  Relative specific activity, %; 150 mg/ml, histidine, trehalose 100 mg/ml, 37 C, 2 weeks: 100%
  Relative specific activity, %; 150 mg/ml, histidine, trehalose 100 mg/ml, 37 C, 4 weeks: 105%
  Relative specific activity, %; 150 mg/ml, histidine, trehalose 100 mg/ml, 37 C, initial control: 97%
